Each block holds one substance with its values, some of them ahead of it.
Experiments:
HA-VHL = HA-VHL (UniProt P40337); assay: co-immunoprecipitation of cotransfected proteins
[1] = molecular target: FL-Jade-1 (tagged library clone, transfected) (human); assay: co-immunoprecipitation of cotransfected proteins
[2] = molecular target: human Jade-1 protein (human); assay: cell-based or functional assay
[3] = molecular target: human Jade-1 protein (human); assay: estimate based upon co-localization data (immunofluorescence)

Chain of UniProt P40337 (P40337 whole entry): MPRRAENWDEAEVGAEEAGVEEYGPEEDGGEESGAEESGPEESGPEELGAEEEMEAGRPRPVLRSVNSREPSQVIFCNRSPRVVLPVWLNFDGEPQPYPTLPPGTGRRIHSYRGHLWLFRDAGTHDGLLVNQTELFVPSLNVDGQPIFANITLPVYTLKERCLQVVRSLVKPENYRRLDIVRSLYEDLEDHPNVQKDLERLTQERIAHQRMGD

percent of Jade-1 in the cell lysate immunoprecipitable with VHL (HA-VHL): 30 to 40%
Substance: FL-Jade-1 (tagged library clone, transfected)

percent of VHL in the cell lysate immunoprecipitable with Jade-1 (vice-versa) [1]: 30 to 40%
Substance: HA-VHL (from UniProt P40337 1-213)

endogenous Jade-1 protein half-life in VHL-plus 786-O renal cancer cells (~40 minutes in VHL-minus cells), metabolic labeling [2]: 1 h | half-life of Jade-1 transiently transfected with VHL (data not shown) [2]: 1.5 h | increase of Jade-1 protein half-life with cotransfected VHL in 293 cells, pulse-chase [2]: 2 fold | percent of VHL that associates with Jade-1 [3]: < 10%
Substance: von Hippel-Lindau (VHL) protein, wild-type human (from UniProt P40337 1-213)
